# Experimental data taken from US20230398218A1 (published 2023).
# Read-outs that look alike come from different tables or passages of the source.
# B1: VVVGAVGVGK (peptide)
# peptide: VVVGAVGVGK
# notes: Endogenously processed RAS G12V peptide eluted from HLA-peptide complexes
# Key:
# HLA-A01.01 [1] = target: T1, HLA-A01.01 (human); experiment: pMHC-I complex dissociation at 37 C, radiolabeled b2m
# T1 construct: in the stability assay the heavy chain is biotinylated and b2m iodine-labeled
# HLA-A03.01 [2] = target: HLA-A03.01 (human); experiment: as above
# HLA-A01.01 [3] = target: T1, HLA-A01.01; experiment: competition with radiolabeled reference peptide on prepared MHC class I
# HLA-A03.01 [4] = target: HLA-A03.01 (human); experiment: as above
# HLA-A11.01 = HLA-A11.01 (human); experiment: as above
# HLA-A24.02 [5] = target: HLA-A24.02 (human); experiment: pMHC-I complex dissociation at 37 C, radiolabeled b2m
# HLA-A24.02 [6] = target: HLA-A24.02 (human); experiment: competition with radiolabeled reference peptide on prepared MHC class I
# HLA-B08.01 [7] = target: HLA-B08.01 (human); experiment: pMHC-I complex dissociation at 37 C, radiolabeled b2m
# HLA-B08.01 [8] = target: HLA-B08.01 (human); experiment: competition with radiolabeled reference peptide on prepared MHC class I
# HLA-A02.01 [9] = target: HLA-A02.01 (human); experiment: as above
# HLA-A02.01 [10] = target: HLA-A02.01 (human); experiment: pMHC-I complex dissociation at 37 C, radiolabeled b2m
# HLA-B08.01 [11] = target: HLA-B08.01 (human); experiment: as above; remark: listed apart in the source
# [12] = target: T2, HLA-A*03:01 expressed in 293T or SW620 cells (human); experiment: targeted MS/MS (PRM) of peptides eluted from HLA-peptide complexes, 293T cells
# T2 construct: whole, on cells; HLA of cells from which peptides were eluted for MS/MS
# Experimental: To assess whether antigens could be processed and presented from the larger polypeptide context, peptides eluted from HLA molecules isolated from cells expressing the genes of interest were analyzed by tandem mass spectrometry (MS/MS).
# For analysis of presentation of RAS neoantigens, cell lines were utilized that have RAS mutations naturally or were lentivirally transduced to express the mutated RAS gene. HLA molecules were either isolated based on the natural expression of the cell lines or the cell lines were lentivirally transduced or transiently transfected to express the HLA of interest. […] Eluted peptides were then analyzed by targeted MS/MS with parallel reaction monitoring (PRM).
binder,measurement,setting,value
"YMANGSLLNY (also called BTK, C481S peptide)",Stability (half-life (hr.)),HLA-A01.01 [1],52 min
same,Stability (half-life (hr.)),HLA-A03.01 [2],16.7 min
same,Affinity,HLA-A01.01 [3],13.2 nM
same,Affinity,HLA-A03.01 [4],95.9 nM
same,Affinity,HLA-A11.01,974 nM
"EYMANGSLL (also called BTK, C481S peptide)",Stability (half-life (hr.)),HLA-A24.02 [5],5.72 h
same,Affinity,HLA-A24.02 [6],4.96 nM
SLLNYLREM,Stability (half-life (hr.)),HLA-B08.01 [7],0 h
same,Affinity,HLA-B08.01 [8],960 nM
MANGSLLNYL,Stability (half-life (hr.)),HLA-B08.01 [7],0 h
"MANGSLLNY (also called BTK, C481S peptide)",Stability (half-life (hr.)),HLA-A01.01 [1],13 min
same,Stability (half-life (hr.)),HLA-A03.01 [2],14.3 min
same,Affinity,HLA-A01.01 [3],439 nM
same,Affinity,HLA-A03.01 [4],35.6 nM
same,Affinity,HLA-A11.01,536 nM
LIMQLMPFGC,Affinity,HLA-A02.01 [9],132 nM
same,Stability (half-life (hr.)),HLA-A02.01 [10],22.9 min
QLIMQLMPF,Stability (half-life (hr.)),HLA-B08.01 [11],0 h
IMQLMPFGCL,Stability (half-life (hr.)),HLA-B08.01 [11],0 h
MQLMPFGCL,Stability (half-life (hr.)),HLA-B08.01 [11],0 h
MQLMPFGCLL,Stability (half-life (hr.)),HLA-B08.01 [11],0 h
VQLIMQLMPF (also called VOLIMQLMPF),Stability (half-life (hr.)),HLA-B08.01 [11],0 h
B1,binding result,[12],binds
